In patent US20120237528A1 (Janssen / Centocor, published 2012):
Like-named read-outs stand apart in the source and are kept apart here.

What was measured:
[1] = target: T1, recombinant extracellular domain (ECD) of human TF, amino acid 1-219 of the mature chain, C-terminal His6-tag (human, UniProt P13726 33-251); assay: Biacore, KD compared with the reference (0.56 nM, the value of M1 in Table 5)
T1 construct: expressed in a mammalian system; used for ELISA and Biacore; biotinylated by NHS-ester for the Fab ELISA; also called His6-TF-ECD1-219; HumanTF1-219

[2] = target: T2, endogenous human tissue factor on MDA-MB-231 breast cancer cells (human, UniProt P13726 33-295); assay: cell-based or functional assay
[3] = target: T1, recombinant extracellular domain (ECD) …; assay: Biacore
[4] = target: T3, Cynomolgous monkey (cyno) TF-ECD with His Tag (cynomolgus monkey, UniProt P13726 33-251 (human entry)); assay: Biacore
T3 construct: also called cyno antigen
T3 chain: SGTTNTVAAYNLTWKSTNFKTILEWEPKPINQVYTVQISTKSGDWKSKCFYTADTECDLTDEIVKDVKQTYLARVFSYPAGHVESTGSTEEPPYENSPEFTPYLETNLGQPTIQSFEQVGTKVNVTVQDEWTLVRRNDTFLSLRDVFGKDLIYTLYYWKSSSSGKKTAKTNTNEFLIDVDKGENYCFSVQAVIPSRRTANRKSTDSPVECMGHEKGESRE

[5] = target: T1, recombinant extracellular domain (ECD) …; assay: Biacore; remark: listed apart in the source
[6] = target: T2, endogenous human tissue factor on …; assay: cell-based or functional assay; remark: listed apart in the source
[7] = target: T3, Cynomolgous monkey (cyno) TF-ECD with …; assay: TF-ECD binding ELISA, chemiluminescent
[8] = target: T1, recombinant extracellular domain (ECD) …; assay: TF-ECD binding ELISA, chemiluminescent
[9] = target: Innovin, lyophilized recombinant human tissue factor combined with phospholipids (human, UniProt P13726 33-295, limits assumed); assay: cell-based or functional assay
[10] = target: T1, recombinant extracellular domain (ECD) …; assay: Biacore; remark: listed apart in the source
[11] = target: T2, endogenous human tissue factor on …; assay: FACS on MDA-MB-231 cells
Procedure: This assay is used to detect the direct binding of antibody to endogenouse human TF expressed in breast cancer cells. Prepare four point titrations of the test mAbs in FACS buffer (1% FBS in PBS) in duplicate. Start a titration at 1,000 ng/ml with 1:4 dilutions. […] Unstained cells and secondary antibody, Cy-5 conjugated Goat anti-Human IgG Fc antibody in FACS buffer 1:200, is used as controls and prepared immediately before use.
Using standard tissue culture technique, rinse adherent MDA-MB-231 cells in culture flask with once with PBS (w/o Ca+2/Mg+2). Lift cells with Versene and count the cells and seed 200,000 cells per well in a polystyrene V-bottom plate. FACS Analysis Protocol: Tissue Factor Binding. Pellet the cells in a Allegra X-15R centrifuge at 450×g for 3 minutes at 4° C., resuspend in FACS Buffer (2% FBS in PBS) and plate 200,000 cells per well in 200 uL. Pellet cells at 450×g for 3 minutes at 4° C. Discard supernatants and add 100 uL/well test or control mAbs to designated wells and incubate on ice or at 4° C. for 1 hour (+/−10 minutes). Pellet cells at 450×g for 3 minutes at 4° C. Discard supernatants and wash cells once in FACS buffer. Resuspend cells in 200 uL/well FACS buffer and pellet cells at 450×g for 3 minutes at 4° C. Discard supernatants and add 100 uL/well secondary antibody to designated wells (triterate), and incubate on ice for 1 hour (+/−10 minutes). Pellet cells at 450×g for 3 minutes at 4° C. Discard supernatants and wash cells 2 times in FACS buffer before resuspending the cells in 200 uL/well FACS Buffer (triterate). Pellet cells at 450×g for 3 minutes at 4° C. Discard supernatant and resuspend cells in 100 uL/well CytoFix Buffer. Analyze reactions by flow cytometry (BD FACSArray). The FlowJo Software is used for FACS data analysis by gating the main population of cells in the unstained control well and applying the gate to the whole data set. The data is exported as a table of the geometric mean fluorescence intensity (MFI) in the red channel for the applied gate.

fold lower KD than the murine parent MAb [1]: 2.5 fold
% IL-8 Inhibition [2]: 107%
fold lower KD than the murine parent MAb (M1) [3]: 2.5 fold
Kd [4]: 1710 pM
Kd [5]: 210 pM
IL-8 Induction, Ave % inhibition [6]: 112%
EC50 [7]: 0.0241 µg/mL
EC50 [8]: 0.0083 µg/mL
T½ Max (seconds), coagulation of human plasma [9]: 186 s
Kd [10]: 200 pM
koff [10]: 1.9e-05 s⁻¹
kon [10]: 94100 M⁻¹ s⁻¹
Whole Cell Binding, Ave % [11]: 111%
B1: M61 (antibody, V domains shown)
VH: EVQLVQSGAEVKKPGESLRISCKGSGYTFITYWIEWVRQMPGKGLEWMGDILPGSGSTNYSPSFQGHVTISADKSISTAYLQWSSLKASDTAMYYCARSGYYGNSGFAYWGQGTLVTVSS
VL: DIVMTQTPLSLSVTPGQPASISCKSSQSLLSSGNQKNYLTWYLQKPGQPPQLLIYWASTRESGVPDRFSGSGSGTDFTLKISRVEAEDVGVYYCQNDYTYPLTFGQGTKLEIK
notes: complete MAb; FR4 is its own entry; also called H22/L5
